Laboratory results taken from patent publication US20100021538A1, “PHARMACEUTICAL COMPOSITIONS CONTAINING HEPARIN DERIVATIVES” (priority 2008, published 2010).

Test: Particle size of heparin-DOCA solutions with solubilizers by electrophoretic light scattering
Type: physicochemical
Settings: aqueous 1 mg/ml heparin-DOCA solution, solubilizer added at 0.1 mg/ml, ELS-8,000, N.D. = particles were not detected
Description: To measure the formation of self-assembled nanoparticles in aqueous solutions of heparin-DOCA and to observe the prevention of particle formation due to a solubilizer, the solubilizers shown in Table 1 were added at a concentration of 0.1 mg/ml to 1 mg/ml of heparin-DOCA solution, and electrophoretic light scattering spectrophotometry (ELS-8,000) was used to measure the size of particles in the solution.

With Heparin-Deoxycholic Acid [Heparin-DOCA] the “Particle Size (nm)” value was 369.5 nm and the “Particle Size (nm)” value (listed as heparin-deoxycholic acid) was 370 nm.
